In the supplement of paper PMC11246515:
± gives the standard deviation of the averaged measurements.

Test: total protein half-life in vivo (active degradation + dilution); higher = more stable protein
[1] = E. coli NCM3722 delta-clpP delta-lon delta-hslV, growth: N-lim chemostat, doubling time 6 h
[2] = E. coli NCM3722 delta-clpP, growth: N-lim chemostat, doubling time 6 h
[3] = E. coli NCM3722 delta-hslV, growth: N-lim chemostat, doubling time 6 h
[4] = E. coli NCM3722 delta-smpB, growth: N-lim chemostat, doubling time 6 h
[5] = wild type E. coli NCM3722, growth: C-lim chemostat, doubling time 3 h
[6] = wild type E. coli NCM3722, growth: C-lim chemostat, doubling time 12 h
[7] = wild type E. coli NCM3722, growth: N-lim chemostat, doubling time 6 h
[8] = wild type E. coli NCM3722, growth: N-lim chemostat, doubling time 12 h
[9] = wild type E. coli NCM3722, growth: P-lim chemostat, doubling time 12 h
[10] = wild type E. coli NCM3722, growth: C-lim chemostat, doubling time 6 h
[11] = wild type E. coli NCM3722, growth: P-lim chemostat, doubling time 6 h
[12] = E. coli NCM3722 delta-lon, growth: N-lim chemostat, doubling time 6 h

MFPFRRNVLAFAALLALSSPVLAGKLAIVIDDFGYRPHNENQVLAMPSAISVAVLPDSPHAREMATKAHNSGHEVLIHLPMAPLSKQPLEKNTLRPEMSSDEIERIIRSAVNNVPYAVGINNHMGSKMTSNLFGMQKVMQALERYNLYFLDSVTIGNTQAMRAAQGTGVKVIKRKVFLDDSQNEADIRVQFNRAIDLARRNGSTIAIGHPHPATVRVLQQMVYNLPPDITLVKASSLLNEPQVDTSTPPKNAVPDAPRNPFRGVKLCKPKKPIEPVYANRFFEVLSESISQSTLIVYFQHQWQGWGKQPEAAKFNASAN
total protein half-life in vivo [1]: 5.42 ± 0.15 h
total protein half-life in vivo [2]: 6.23 h
total protein half-life in vivo [3]: 6.09 ± 0.91 h
total protein half-life in vivo [4]: 4.79 h
total protein half-life in vivo [5]: 3.38 h
total protein half-life in vivo [6]: 11.2 ± 1.3 h
total protein half-life in vivo [7]: 6.68 ± 0.97 h
total protein half-life in vivo [8]: 9.34 h
total protein half-life in vivo [9]: 8.02 h

MKSILIEKPNQLAIVEREIPTPSAGEVRVKVKLAGICGSDSHIYRGHNPFAKYPRVIGHEFFGVIDAVGEGVESARVGERVAVDPVVSCGHCYPCSIGKPNVCTTLAVLGVHADGGFSEYAVVPAKNAWKIPEAVADQYAVMIEPFTIAANVTGHGQPTENDTVLVYGAGPIGLTIVQVLKGVYNVKNVIVADRIDERLEKAKESGADWAINNSQTPLGEIFTEKGIKPTLIIDAACHPSILKEAVTLASPAARIVLMGFSSEPSEVIQQGITGKELSIFSSRLNANKFPIVIDWLSKGLIKPEKLITHTFDFQHVADAISLFEQDQKHCCKVLLTFSE
total protein half-life in vivo [1]: 3.84 ± 0.53 h
total protein half-life in vivo [4]: 2.11 h
total protein half-life in vivo [5]: 2.26 ± 0.28 h
total protein half-life in vivo [10]: 3.455 ± 0.03 h
total protein half-life in vivo [6]: 8.98 ± 3.8 h
total protein half-life in vivo [7]: 2.37 h
total protein half-life in vivo [11]: 4.75 h
total protein half-life in vivo [9]: 7.18 h

MKISLVVPVFNEEEAIPIFYKTVREFEELKSYEVEIVFINDGSKDATESIINALAVSDPLVVPLSFTRNFGKEPALFAGLDHATGDAIIPIDVDLQDPIEVIPHLIEKWQAGADMVLAKRSDRSTDGRLKRKTAEWFYKLHNKISNPKIEENVGDFRLMSRDVVENIKLMPERNLFMKGILSWVGGKTDIVEYVRAERIAGDTKFNGWKLWNLALEGITSFSTFPLRIWTYIGLVVASVAFIYGAWMILDTIIFGNAVRGYPSLLVSILFLGGIQMIGIGVLGEYIGRTYIETKKRPKYIIKRVKK
total protein half-life in vivo [1]: 6.26 ± 0.44 h
total protein half-life in vivo [2]: 6.88 ± 1.2 h
total protein half-life in vivo [3]: 7.42 ± 0.82 h
total protein half-life in vivo [4]: 6.23 ± 0.34 h
total protein half-life in vivo [5]: 3.54 ± 0.22 h
total protein half-life in vivo [10]: 6.05 ± 0.38 h
total protein half-life in vivo [7]: 6.19 ± 0.16 h
total protein half-life in vivo [11]: 6.08 ± 0.13 h
total protein half-life in vivo [9]: 13.7 ± 0.2 h

MADTHHAQGPGKSVLGIGQRIVSIMVEMVETRLRLAVVELEEEKANLFQLLLMLGLTMLFAAFGLMSLMVLIIWAVDPQYRLNAMIATTVVLLLLALIGGIWTLRKSRKSTLLRHTRHELANDRQLLEEESREQ
total protein half-life in vivo [1]: 6.43 ± 0.14 h
total protein half-life in vivo [2]: 6.06 ± 0.94 h
total protein half-life in vivo [3]: 7.19 ± 0.63 h
total protein half-life in vivo [12]: 5.35 ± 1.2 h
total protein half-life in vivo [4]: 6.49 ± 0.34 h
total protein half-life in vivo [5]: 2.99 ± 0.26 h
total protein half-life in vivo [10]: 5.36 ± 0.18 h
total protein half-life in vivo [6]: 11 ± 0.91 h
total protein half-life in vivo [7]: 6.27 ± 0.46 h
total protein half-life in vivo [8]: 11.7 ± 3.4 h
total protein half-life in vivo [11]: 4.39 ± 0.56 h

MQERIKACFTESIQTQIAAAEALPDAISRAAMTLVQSLLNGNKILCCGNGTSAANAQHFAASMINRFETERPSLPAIALNTDNVVLTAIANDRLHDEVYAKQVRALGHAGDVLLAISTRGNSRDIVKAVEAAVTRDMTIVALTGYDGGELAGLLGPQDVEIRIPSHRSARIQEMHMLTVNCLCDLIDNTLFPHQDD
total protein half-life in vivo [1]: 5.68 ± 1.7 h
total protein half-life in vivo [2]: 6.95 ± 0.57 h
total protein half-life in vivo [3]: 4.6 ± 0.094 h
total protein half-life in vivo [12]: 5.12 ± 0.18 h
total protein half-life in vivo [4]: 5.68 ± 1.4 h
total protein half-life in vivo [5]: 3.087 ± 0.0052 h
total protein half-life in vivo [10]: 5.56 ± 0.26 h
total protein half-life in vivo [6]: 11.1 ± 0.025 h
total protein half-life in vivo [7]: 4.54 h
total protein half-life in vivo [8]: 7.55 ± 1 h
total protein half-life in vivo [11]: 5.81 ± 0.52 h
total protein half-life in vivo [9]: 13 ± 3.2 h

MRKLWNALRRPSARWSVLALVAIGIVIGIALIVLPHVGIKVTSTTEFCVSCHSMQPVYEEYKQSVHFQNASGVRAECHDCHIPPDIPGMVKRKLEASNDIYQTFIAHSIDTPEKFEAKRAELAEREWARMKENNSATCRSCHNYDAMDHAKQHPEAARQMKVAAKDNQSCIDCHKGIAHQLPDMSSGFRKQFDELRASANDSGDTLYSIDIKPIYAAKGDKEASGSLLPASEVKVLKRDGDWLQIEITGWTESAGRQRVLTQFPGKRIFVASIRGDVQQQVKTLEKTTVADTNTEWSKLQATAWMKKGDMVNDIKPIWAYADSLYNGTCNQCHGAPEIAHFDANGWIGTLNGMIGFTSLDKREERTLLKYLQMNASDTAGKAHGDKKEEK
total protein half-life in vivo [12]: 5.27 h
total protein half-life in vivo [8]: 9.72 h
total protein half-life in vivo [9]: 10.5 h

MPSTRYQKINAHHYRHIWVVGDIHGEYQLLQSRLHQLSFFPKIDLLISVGDNIDRGPESLDVLRLLNQPWFTSVKGNHEAMALEAFETGDGNMWLASGGDWFFDLNDSEQQEAIDLLLKFHHLPHIIEITNDNIKYAIAHADYPGSEYLFGKEIAESELLWPVDRVQKSLNGELQQINGADYFIFGHMMFDNIQTFANQIYIDTGSPNSGRLSFYKIK
total protein half-life in vivo [6]: > 16 h
total protein half-life in vivo [7]: 4.06 h
total protein half-life in vivo [9]: > 16 h

MSLKEKTQSLFANAFGYPATHTIQAPGRVNLIGEHTDYNDGFVLPCAIDYQTVISCAPRDDRKVRVMAADYENQLDEFSLDAPIVAHENYQWANYVRGVVKHLQLRNNSFGGVDMVISGNVPQGAGLSSSASLEVAVGTVLQQLYHLPLDGAQIALNGQEAENQFVGCNCGIMDQLISALGKKDHALLIDCRSLGTKAVSMPKGVAVVIINSNFKRTLVGSEYNTRREQCETGARFFQQPALRDVTIEEFNAVAHELDPIVAKRVRHILTENARTVEAASALEQGDLKRMGELMAESHASMRDDFEITVPQIDTLVEIVKAVIGDKGGVRMTGGGFGGCIVALIPEELVPAVQQAVAEQYEAKTGIKETFYVCKPSQGAGQC [P0A6T3]
total protein half-life in vivo [1]: 5.59 ± 2 h
total protein half-life in vivo [2]: 6.35 h
total protein half-life in vivo [3]: 5.09 ± 1.2 h
total protein half-life in vivo [12]: 5.29 ± 0.75 h
total protein half-life in vivo [4]: 4.573 ± 0.04 h
total protein half-life in vivo [5]: 3.22 ± 0.53 h
total protein half-life in vivo [10]: 5.71 ± 0.33 h
total protein half-life in vivo [6]: 12.7 ± 2 h
total protein half-life in vivo [7]: 4.53 ± 0.13 h
total protein half-life in vivo [8]: 7.14 ± 0.81 h
total protein half-life in vivo [11]: 6.11 ± 0.1 h
total protein half-life in vivo [9]: 11.9 ± 0.71 h

MTLTLNRQLLTSRQILVAFSGGLDSTVLLHQLVQWRTENPGVALRAIHVHHGLSANADAWVTHCENVCQQWQVPLVVERVQLAQEGLGIEAQARQARYQAFARTLLPGEVLVTAQHLDDQCETFLLALKRGSGPAGLSAMAEVSEFAGTRLIRPLLARTRGELVQWARQYDLRWIEDESNQDDSYDRNFLRLRVVPLLQQRWPHFAEATARSAALCAEQESLLDELLADDLAHCQSPQGTLQIVPMLAMSDARRAAIIRRWLAGQNAPMPSRDALVRIWQEVALAREDASPCLRLGAFEIRRYQSQLWWIKSVTGQSENIVPWQTWLQPLELPAGLGSVQLNAGGDIRPPRADEAVSVRFKAPGLLHIVGRNGGRKLKKIWQELGVPPWLRDTTPLLFYGETLIAAAGVFVTQEGVAEGENGVSFVWQKTLS
total protein half-life in vivo [1]: 5.68 ± 0.23 h
total protein half-life in vivo [2]: 5.01 ± 0.08 h
total protein half-life in vivo [3]: 4.74 ± 0.42 h
total protein half-life in vivo [12]: 4.89 ± 0.25 h
total protein half-life in vivo [4]: 4.44 ± 0.24 h
total protein half-life in vivo [10]: 5.78 ± 0.29 h
total protein half-life in vivo [6]: 11 ± 0.83 h
total protein half-life in vivo [7]: 5.27 ± 0.28 h
total protein half-life in vivo [8]: 8.42 ± 0.81 h
total protein half-life in vivo [11]: 6.31 ± 0.15 h
total protein half-life in vivo [9]: 11.6 ± 1 h
